The chains are these.
B1: Ankyrin-2, residues 3571 to 3650; numbered along this chain, Q01484 (parent)
chain: ERLAYIADHLGFSWTELARELDFTEEQIHQIRIENPNSLQDQSHALLKYWLERDGKHATDTNLVECLTKINRMDIVHLME

± gives the uncertainty stated by the source.

The variants in this data set derive from B1. The data set can be described thus: abundance fitness (aPCA) (normalised: wild type 0, dead -1); higher = more abundant; growth selection in yeast, the domain comes from the species named. The settings on record: Homo sapiens.
On to ERLAYIADHLGFSWTELARELDFTEEQIHQIRIENPNSLQDQSHALLKYWLERDGKHATDTNLVECLTKINRMDVVHLME [I75V], for which the abundance fitness was found to be 0.136 ± 0.27.
For ERLAYIADHLGFSWTELARELDFTEEQIHQIRIENPNSLQDQSHALLKYWLERDGKCATDTNLVECLTKINRMDIVHLME [H57C], the abundance fitness was -0.062 ± 0.07.
ERLAYIADHLGFSWTELARELDFTEEQIHQIRIEFPNSLQDQSHALLKYWLERDGKHATDTNLVECLTKINRMDIVHLME [N35F]: the abundance fitness is -0.091 ± 0.14.
As for ERLAYIADHLGFSWTELARELDFTEEQIHQIRIEIPNSLQDQSHALLKYWLERDGKHATDTNLVECLTKINRMDIVHLME [N35I], the abundance fitness was -0.087 ± 0.11.
ERLAYIADHLGDSWTELARELDFTEEQIHQIRIENPNSLQDQSHALLKYWLERDGKHATDTNLVECLTKINRMDIVHLME [F12D]: the abundance fitness is -0.312 ± 0.24.
In the case of ERLAYIADHLGFSWTELADELDFTEEQIHQIRIENPNSLQDQSHALLKYWLERDGKHATDTNLVECLTKINRMDIVHLME [R19D] it was -0.006 ± 0.18; in that of ERLAYIADHLGFSWTELARELDFTEEQIHQIRIENPNSLQDQSHALLKYWLERDGKHATDTNLSECLTKINRMDIVHLME [V64S], -0.011 ± 0.055.
In the case of ERLAPIADHLGFSWTELARELDFTEEQIHQIRIENPNSLQDQSHALLKYWLERDGKHATDTNLVECLTKINRMDIVHLME [Y5P] it was -0.019 ± 0.17; in that of ERLRYIADHLGFSWTELARELDFTEEQIHQIRIENPNSLQDQSHALLKYWLERDGKHATDTNLVECLTKINRMDIVHLME [A4R], -0.007 ± 0.043; in that of ERLFYIADHLGFSWTELARELDFTEEQIHQIRIENPNSLQDQSHALLKYWLERDGKHATDTNLVECLTKINRMDIVHLME [A4F], 0.129 ± 0.068.
ERLAYIADHLGFSWTELARELDFTEEQIHQIRIENPNSLQDQSGALLKYWLERDGKHATDTNLVECLTKINRMDIVHLME [H44G]: the abundance fitness was -0.099 ± 0.12.
Take ERLAYIADHLGFSWTELARELDFTEEQIHQIRIENPNSLQVQSHALLKYWLERDGKHATDTNLVECLTKINRMDIVHLME [D41V]: the abundance fitness was -0.065 ± 0.057.
In the case of ERLAYIADHLGFSWTELARELDFTEEQIHQIRIENPNSLQKQSHALLKYWLERDGKHATDTNLVECLTKINRMDIVHLME [D41K] it was -0.034 ± 0.14.
In the case of ERLAYIADHLGFSWTELARELDFTEEQIHQIRIENPNSLQMQSHALLKYWLERDGKHATDTNLVECLTKINRMDIVHLME [D41M] it was -0.019 ± 0.079.
As to ERLAYIADHLGFSWTELARELDFTEEQIHQIRIENPNDLQDQSHALLKYWLERDGKHATDTNLVECLTKINRMDIVHLME [S38D], the abundance fitness is -0.038 ± 0.15.
As to ERLAYIADHLGFSWTELARELDFTEEQIHQIRIENPISLQDQSHALLKYWLERDGKHATDTNLVECLTKINRMDIVHLME [N37I], the abundance fitness was -0.01 ± 0.17.
Take ERLAYIADHLGFSWTELARELDFTEEQIHQIRIENPGSLQDQSHALLKYWLERDGKHATDTNLVECLTKINRMDIVHLME [N37G]: the abundance fitness is -0.028 ± 0.048.
Turning to ERLAYIADHLGFSWTELARELDFTEEQIHQIRIENPWSLQDQSHALLKYWLERDGKHATDTNLVECLTKINRMDIVHLME [N37W], the abundance fitness was -0.091 ± 0.082.
As for ERLAYIADHLGFSWTELARELDFTEEQIHQIRIENPNSLQDQSHALLKYWCERDGKHATDTNLVECLTKINRMDIVHLME [L51C], the abundance fitness is -0.236 ± 0.16.
Regarding ERLAYIADHLGFSWTELARELDFTEEQIHQIRIENPNSLQDQSHALLKRWLERDGKHATDTNLVECLTKINRMDIVHLME [Y49R], the abundance fitness was -0.129 ± 0.056.
For ERLAYIADHLGFSWTELARELDFTEEQIHQIRIENPNSLQDQSHALLKYWLERDGKHACDTNLVECLTKINRMDIVHLME [T59C], the abundance fitness is -0.095 ± 0.1.
In the case of ERLAYIADHLGFSWTELARELDFTEEQIHQIRRENPNSLQDQSHALLKYWLERDGKHATDTNLVECLTKINRMDIVHLME [I33R] it was 0.011 ± 0.055.
In the case of ERLAYIADHLGFSWTELARELDFTEEQIHQIREENPNSLQDQSHALLKYWLERDGKHATDTNLVECLTKINRMDIVHLME [I33E] it was 0.039 ± 0.082; in that of ERLAYIADHLGFSWTELARELDFTEEQNHQIRIENPNSLQDQSHALLKYWLERDGKHATDTNLVECLTKINRMDIVHLME [I28N], -0.301 ± 0.14.
Consider ERLAYIADHLGFSWTELARELDFTEEQIHQIRIENPNSLQDQSHALLKYWLERDGKHATDTNLVECLTKILRMDIVHLME [N71L], for which the abundance fitness is -0.196 ± 0.055.
Consider ERLAYIADHLGFSWTELARELDFTEEQIHQIRIENPNSLQDQSHALLKYWLERDGKHATDTELVECLTKINRMDIVHLME [N62E], for which the abundance fitness was -0.089 ± 0.13.
In the case of ERLAYIADHLGFSWTELARELDFTEEQIHQIRIENPNSLQDQSHALLKYWLERDGKHATDTFLVECLTKINRMDIVHLME [N62F] it was -0.181 ± 0.13; in that of ERLAYIADHLGFSWTELARELDFTEEQIHQIRIENPNSLQDQSHALLKYWLERDGKHATDTPLVECLTKINRMDIVHLME [N62P], -0.079 ± 0.054; in that of ERLAYIADHLGFSWTELARELDFTEEQIHQIRIENPNSDQDQSHALLKYWLERDGKHATDTNLVECLTKINRMDIVHLME [L39D], -0.031 ± 0.11.
For the variant ERLAYIADHLGFSWTELARELDFTEEQIHQIRIENPNSLQDQSHALLKYQLERDGKHATDTNLVECLTKINRMDIVHLME [W50Q], the abundance fitness was 0.003 ± 0.068.
In the case of ERLAYIADHLGFSWTELARELDFTEEQIHQIRIENPNSLQDQSHALLKYLLERDGKHATDTNLVECLTKINRMDIVHLME [W50L], the abundance fitness was 0.012 ± 0.056.
In the case of ERLAYIADHLGFSWTELARELDFTEEQIHQIRIENPNSLQDQSHALLKYWLERDGIHATDTNLVECLTKINRMDIVHLME [K56I] it was -0.084 ± 0.13; in that of ERLAYIADHLGFSWTELARELDFTEEQIHQIRIENPNSLQDQSHALLKYWLERDGHHATDTNLVECLTKINRMDIVHLME [K56H], 0.022 ± 0.099.
In the case of ERLAYIADHLGFSWTELARELDFTEEQIHQIRIENPNSLQDQSHALLKYWLERDGRHATDTNLVECLTKINRMDIVHLME [K56R], the abundance fitness was -0.037 ± 0.045.

The values above are taken from the Human Domainome abundance scans (Beltran et al. 2025).
